Values quoted from earlier work, collected in patent US5770691A, “Discriminatory substrates for MMP hydrolysis” (Regents of the University of Minnesota, priority 1995, dated 1998).

Target: MMP-3 (Homo sapiens, UniProt P08254)
Settings: MMP-3 cleavage, determined at 37° C.

MMP-3, sequence (P08254 100-477, species assumed): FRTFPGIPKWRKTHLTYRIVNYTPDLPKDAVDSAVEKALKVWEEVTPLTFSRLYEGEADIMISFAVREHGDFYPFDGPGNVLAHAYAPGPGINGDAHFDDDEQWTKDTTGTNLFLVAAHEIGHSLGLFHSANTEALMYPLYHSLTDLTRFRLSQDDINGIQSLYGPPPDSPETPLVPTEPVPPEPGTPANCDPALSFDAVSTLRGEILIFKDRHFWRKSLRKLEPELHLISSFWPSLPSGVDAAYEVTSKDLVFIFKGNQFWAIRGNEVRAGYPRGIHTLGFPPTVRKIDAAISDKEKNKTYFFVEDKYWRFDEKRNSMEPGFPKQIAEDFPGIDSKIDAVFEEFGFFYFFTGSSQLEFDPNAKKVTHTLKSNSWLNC

B1: Human α1 -antichymotrypain: protease inhibitor cleaved by MMP-3 at Ala360-Leu361 (protein, UniProt P01011 24-423, looked up)
Alpha-1-antichymotrypsin: HPNSPLDEENLTQENQDRGTHVDLGLASANVDFAFSLYKQLVLKAPDKNVIFSPLSISTALAFLSLGAHNTTLTEILKGLKFNLTETSEAEIHQSFQHLLRTLNQSSDELQLSMGNAMFVKEQLSLLDRFTEDAKRLYGSEAFATDFQDSAAAKKLINDYVKNGTRGKITDLIKDLDSQTMMVLVNYIFFKAKWEMPFDPQDTHQSRFYLSKKKWVMVPMMSLHHLTIPYFRDEELSCTVVELKYTGNASALFILPDQDKMEEVEAMLLPETLKRWRDSLEFREIGELYLPKFSISRDYNLNDILLQLGIEEAFTSKADLSGITGARNLAVSQVVHKAVLDVFEEGTEASAATAVKITLLSALVETRTIVRFNRPFLMIIVPTDTQNIFFMSKVTNPKQA
  kcat /Kb: 35,000 S^-1 M^-1
